Measured values from PMC8928218 (Frontiers in Cell and Developmental Biology, 2022).

Biological target: Pyrene-labeled G-actin (rabbit, UniProt P68135 1-377, pyrene label)
Assay: cell-based or functional assay

fold decrease in actin monomer turnover in the elongation phase (tau, the inverse value of the rate constant) in the pyrene actin polymerization assay, 2 µM actin, relative to actin alone: ~1.4 fold
B1: human hexameric SEPT2/6/7 complex (complex)
chain 1: MSKQQPTQFINPETPGYVGFANLPNQVHRKSVKKGFEFTLMVVGESGLGKSTLINSLFLTDLYPERVIPGAAEKIERTVQIEASTVEIEERGVKLRLTVVDTPGYGDAINCRDCFKTIISYIDEQFERYLHDESGLNRRHIIDNRVHCCFYFISPFGHGLKPLDVAFMKAIHNKVNIVPVIAKADTLTLKERERLKKRILDEIEEHNIKIYHLPDAESDEDEDFKEQTRLLKASIPFSVVGSNQLIEAKGKKVRGRLYPWGVVEVENPEHNDFLKLRTMLITHMQDLQEVTQDLHYENFRSERLKRGGRKVENEDMNKDQILLEKEAELRRMQEMIARMQAQMQMQMQGGDGDGGALGHHV
chain 2: MAATDIARQVGEGCRTVPLAGHVGFDSLPDQLVNKSVSQGFCFNILCVGETGLGKSTLMDTLFNTKFEGEPATHTQPGVQLQSNTYDLQESNVRLKLTIVSTVGFGDQINKEDSYKPIVEFIDAQFEAYLQEELKIRRVLHTYHDSRIHVCLYFIAPTGHSLKSLDLVTMKKLDSKVNIIPIIAKADAISKSELTKFKIKITSELVSNGVQIYQFPTDDESVAEINGTMNAHLPFAVIGSTEELKIGNKMMRARQYPWGTVQVENEAHCDFVKLREMLIRVNMEDLREQTHTRHYELYRRCKLEEMGFKDTDPDSKPFSLQETYEAKRNEFLGELQKKEEEMRQMFVQRVKEKEAELKEAEKELHEKFDRLKKLHQDEKKKLEDKKKSLDDEVNAFKQRKTAAELLQSQGSQAGGSQTLKRDKEKKNNPWLCTE
chain 3: MSVSARSAAAEERSVNSSTMVAQQKNLEGYVGFANLPNQVYRKSVKRGFEFTLMVVGESGLGKSTLINSLFLTDLYSPEYPGPSHRIKKTVQVEQSKVLIKEGGVQLLLTIVDTPGFGDAVDNSNCWQPVIDYIDSKFEDYLNAESRVNRRQMPDNRVQCCLYFIAPSGHGLKPLDIEFMKRLHEKVNIIPLIAKADTLTPEECQQFKKQIMKEIQEHKIKIYEFPETDDEEENKLVKKIKDRLPLAVVGSNTIIEVNGKRVRGRQYPWGVAEVENGEHCDFTILRNMLIRTHMQDLKDVTNNVHYENYRSRKLAAVTYNGVDNNKNKGQLTKSPLAQMEEERREHVAKMKKMEMEMEQVFEMKVKEKVQKLKDSEAELQRRHEQMKKNLEAQHKELEEKRRQFEDEKANWEAQQRILEQQNSSRTLEKNKKKGKIF
